In paper PMC3424247, “The Crystal Structures of the Tryparedoxin-Tryparedoxin Peroxidase Couple Unveil the Structural Determinants of Leishmania Detoxification Pathway” (PLoS Neglected Tropical Diseases, 2012):

B1: cytosolic tryparedoxin from Leishmania major (enzyme, UniProt E9ADX4 1-145, looked up)
chain: MSGVAKHLGEALKLRKQADTADMDSLSGKTVFFYFSASWCPPCRGFTPQLVEFYEKHHDSKNFEIILASWDEEEDDFNAYYAKMPWLSIPFANRNIVEALTKKYSVESIPTLIGLNADTGDTVTTRARHALTQDPMGEQFPWRDE
notes: cytosolic tryparedoxin (TXN1) of Leishmania major, gene amplified from L. major DNA with primers that hold the start (CATATG) and the stop codon; residues 2-145 seen in the crystal; Cloned between NdeI and HindIII of pET28b; the tag is probably N-terminal and thrombin probably leaves a few vector residues (surmised); Monomer-dimer equilibrium in solution, mostly monomer; also called LmTXN; TXN; …

Tests used:
[1] = molecular target: tryparedoxin-dependent peroxidase from Leishmania major (Leishmania major); experiment: crystal structure; LmTXNPx about 12 mg/mL with 50 mM DTT, 22-26% PEG3350, 100 mM Bis-tris propane pH 8.0, 0.2 M KSCN, 293 K; five molecules per asymmetric unit, decamer from two adjacent asymmetric units; 3.0 Å
[2] = molecular target: cytosolic tryparedoxin from Leishmania major (Leishmania major) (UniProt E9ADX4); experiment: SPR; as a6 but HBS-P buffer + 30 mM H2O2 (oxidizing conditions); LmTXNPx 80 nM-10 µM
[3] = molecular target: tryparedoxin-dependent peroxidase from Leishmania major (Leishmania major); experiment: native gel or EMSA; Novex 4-12% Tris-Glycine non-denaturing gels; LmTXNPx 0.5 mg/mL with H2O2 (300, 30, 3 mM) or DTT (50, 5, 1 mM)
[4] = molecular target: cytosolic tryparedoxin from Leishmania major (Leishmania major) (UniProt E9ADX4); experiment: SPR; BIACORE X, CM5 chip; LmTXN immobilised by amine coupling (about 1000 RU), LmTXNPx flowed over (40 nM-4.0 µM); 298 K; HBS-P buffer (10 mM HEPES pH 7.4, 0.15 M NaCl, 0.005% P-20); 30 µL/min; Scatchard analysis of Req
[5] = molecular target: cytosolic tryparedoxin from Leishmania major (Leishmania major) (UniProt E9ADX4); experiment: SPR; as a6 but HBS-P buffer + 1 mM dithiotreitol (reducing conditions); LmTXNPx 40 nM-5 µM; for the dissociation rate DTT was added after 2080 s to the complex formed in HBS-P
[6] = molecular target: the molecule itself; experiment: crystal structure; LmTXN about 8 mg/mL, hanging drop, 293 K, 20-24% PEG 3350, 100 mM Tris-HCl pH 8.5, 50 mM MgCl2; one molecule per asymmetric unit, dimer by crystallographic two-fold; 1.8 Å

Molecule	stoichiometry N [1]	Kd [2] [µM]	koff [2] [s⁻¹]	stoichiometry N [3]	Kd [4] [µM]	koff [4] [s⁻¹]	Kd [5] [µM]	koff [5] [s⁻¹]	stoichiometry N [6]
tryparedoxin-dependent peroxidase from Leishmania major (enzyme)	10	> 20	> 0.1	10	1.1	5e-05	> 20	0.009	
B1									2
